Assay in all cases: BLI
In one assay the target is T1, CCL8 (human, UniProt P80075 24-99).
T1 chain: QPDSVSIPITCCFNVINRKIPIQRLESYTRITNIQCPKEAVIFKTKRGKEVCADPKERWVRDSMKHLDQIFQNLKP

A further assay concerns the target T2, CCL4L1_HUMAN (Homo sapiens).
T2 chain: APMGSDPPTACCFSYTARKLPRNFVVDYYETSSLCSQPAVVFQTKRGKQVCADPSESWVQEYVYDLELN

Another assay concerns the target T3, CCL1 (human, UniProt P22362 24-96).
T3 chain: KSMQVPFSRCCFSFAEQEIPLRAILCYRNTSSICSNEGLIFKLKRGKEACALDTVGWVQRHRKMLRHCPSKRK

In the next assay the target is T4, CCL5 (human, UniProt P13501 24-91).
T4 chain: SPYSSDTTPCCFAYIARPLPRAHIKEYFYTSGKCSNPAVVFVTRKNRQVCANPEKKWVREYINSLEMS

In the next assay the target is T5, CCL24_HUMAN (Homo sapiens).
T5 chain: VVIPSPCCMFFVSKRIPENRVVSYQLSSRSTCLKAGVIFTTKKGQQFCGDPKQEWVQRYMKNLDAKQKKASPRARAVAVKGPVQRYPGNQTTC

Substitutions are numbered along the chain they refer to.

B1: P1183_AMBTR, purified, C-terminal StrepII-8xHis tag (natural protein)
chain: ETGEAPKDDFEYDGGCPFVVLDNGTHVKPAGCSHLCNGAPETLDNIECYNVTEEVAKRMTPGIPYACWLGWCSKGECKRDNRTEVCYRGSEEE
Take B1: binding with CCL8 was put at a Kd of 1100 nM. That is a single-digit micromolar value.

B2: P983_AMBCA, purified, C-terminal StrepII-8xHis tag (natural protein)
chain: ETGEDTGTEDDFDYGNTGCPFPVLGNYKSNMTKPVGCKNKCGSGYEVLNDTTPCYVIDQKVFNNMVPLRQYSKCPLGFCENGECKPNDQAEDCYKGREEQKGGGGGSGGGGSGGASAWSHPQFEKLEHHHHHHHH
For B2, in the assay with CCL4L1_HUMAN, the Kd (usually the free concentration of one partner at which half of the binding sites on the other are occupied at equilibrium, for simple one-to-one binding) was determined as 2.9 nM.

B3: P974_AMBCA, purified, C-terminal StrepII-8xHis tag (natural protein)
chain: ETGENTQQEEQDYDYGTDTCPFPVLANKTNKAKFVGCHQKCNGGDQKLTDGTACYVVERKVWDRMTPMLWYECPLGECKNGVCEDLRKKEDCRKGNGEEK
As for B3, the Kd with CCL8 turned out to be 2.6 nM; in the assay with CCL1, 71 nM.

B4: P546_AMBCA, purified, C-terminal StrepII-8xHis tag (natural protein)
chain: B3 chain with Q11E, E72S, D91E
Take B4: the Kd with CCL8 came to 1.3 nM; with CCL4L1_HUMAN it was 8.9 nM.

B5: P467_RHIPU, purified, C-terminal StrepII-8xHis tag (natural protein)
chain: ETGAEKSLDSDSSGEDYELWTQGCPFLVAENRTGFGTTVSCQHNCNGAIEKVPEGEPCYTIGEDGLGRMKLNLPYNCSLGECSGGVCVPNGRSDVCFKRTWEENNKAMA
As for B5, the Kd in the assay with CCL4L1_HUMAN is 4.7 nM; in the assay with CCL5, 7.7 nM; with CCL1, 53 nM.

B6: P985_AMBPA, purified, C-terminal StrepII-8xHis tag (natural protein)
chain: ETGDEESEELGASTDVDYEELDANCTCPAPALTSTRNNKHYPLGCIYNCSSYNCTIPDGTPCYVLTLGEVKEHLQIGSTVPNCTCGLCRNGTCVSNGTVEECFAVEEIEET
For B6, the figures for the Kd with CCL24_HUMAN, in the assay with CCL4L1_HUMAN and in the assay with CCL1 were 41 nM, 21 nM and 8.3 nM, respectively.

These data come from PMC5487423 (2017).
